Data from the nanobody polyreactivity screen of Harvey et al. (2022).

assay: yeast display, Sf9 membrane polyspecificity reagent, FACS + sequencing; frameworks hold sequencing errors
Summary of the method: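 Genes from sorted yeast were amplified by colony PCR, read by MiSeq 2 × 250 sequencing and filtered on CDR length. These cells carried a synthetic nanobody library in Saccharomyces cerevisiae BJ5465 and were sorted by FACS into low and high (top ~1%) gates on anti-HA and streptavidin fluorescence. Polyreactivity is labelled according to the gate of origin.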

Sequence | polyreactivity (PSR sort gate)
QVQHVESGGGLVQAGGSLRLSCAASARIFYWYVMGWSRQAPGKERELVASISRSGGSTYYADSVKGRFTISRDNAKNTVYVQMNSLKPEDTAVYYCNAGSVYTVSLPGHPYDYWGQGTQVTVSS | low polyreactivity
QVQHVESGGGLVQAGGSLRLSCAASGFIFDNYAMGWYRQSPGKERELVAAISRSGGSTYYADSVKGRFTISRDNAKTTVYLQMNSLKPEDTAVYYCATSGPRGWSLHDYWGQGTQVTVSS | high polyreactivity
QVQHVESGGGLVQAGGSLRLSCAASGFIFPNNAMGWYLQAPGKERELVARISYGGGDTHYADSVKGRFTISRDNAKNTVSLQMNSLKPEDTAVYYCAVKVGQDDYWGQGTQVTVSS | low polyreactivity
QVQHVESGGGLVQAGGSLRLSCAASGFIFRRYVMGWYRQAPGKERELVAAISYGGGSTYYADSVKGRFTISRDNAKNTVYLQMNCLKPEDTAVYYCNAVSYNLAAYDYWGQGTQVTVSS | high polyreactivity
QVQHVESGGGLVQAGGSLRLSCAASGFIFRYYAMGWYRQAPGKERELVAAITWNGGSTYYADSVKGRFTISRDNAKNTVYLQLNSLKPEDTAVYYCADVPYTPSPYTYGYWGQGTQVSVSS | high polyreactivity
QVQHVESGGGLVQAGGSLRLSCAASGFIFSNNAMGRYRQAPGKERELVAAITSSGGRTYYADSVKGRFTISRDNAKNTVYLQMNSLKPEDTAVYYCAAVWRTSVWTKYGYWGQGTQVTVSS | high polyreactivity
QVQHVESGGGLVQAGGSLRLSCAASGFIFVRNTMGWYRQAPGKERELVATITRRGGSTSYADSVKGRFTISRDNAKNTVYLQMNSLKPEDTAVYFCNARSVYGSKQEEYWGQGTQVTVSS | high polyreactivity
QVQHVESGGGLVQAGGSLRLSCAASGFIIQGNAMGWYRQAPGKERELVAAISSSVSTYYADSVKGRFTISRDNAKNTVYLQMNSLKPEDTAVYYCNAGFPLSLWLGDYWGQGTQVTVSS | low polyreactivity
QVQHVESGGGLVQAGGSLRLSCAASGFTFGSYAMGWYRQAPGKERELVARISSDGSTNYADSVKGRFTISRDNPKNTVYLQMNSLKPEDTAVYYCAADRVVEYADYYYWGQGTQVTVSS | low polyreactivity
QVQHVESGGGLVQAGGSLRLSCAASGFTFNLYAMGWYRQAPGKERELVAAINWSGGTYYADSVKGRFTISRDNAKNTVYLQMNSLKPEYTAVYYCAADFPYTPWSYHHHVWSPDFDYWGQGTQVTVSS | low polyreactivity
QVQHVESGGGLVQAGGSLRLSCAASGFTFQSYPMGWYRQAPGKERELVAAITRRGTRTYYADSVKGRFTISRDNAKNTVYLQLNSLKPEDTAVYYCAARSPKLEFDYWGQGTQVTVSS | high polyreactivity
QVQHVESGGGLVQAGGSLRLSCAASGFTFWRYAMGWYRQEPGKERELVAGISSGGSTNYADSVKGRFTISRDNAKNTVYLQMNSLKPEDTAVYYCAADNSVGSYDYWGQGSQVTVSS | low polyreactivity
QVQHVESGGGLVQAGGSLRLSCAASGFTSIMYAMGWYRQAPGKERDLVASISISDGSTYYADSVKGRFTISRDNAKNTVYLQMNILKPEDTAVYYCAADVYVWYTYSYDYWGQGTKVTVSS | low polyreactivity
QVQHVESGGGLVQAGGSLRLSCAASGIIFFKNAMGWYRQAPGKERELVAAISSTDTRTYYADSVKGRFTISRDNAKNTVYLQMNSLKPEDTAVYYCAASRRGGGLDYWGQGTQVTVSS | high polyreactivity
QVQHVESGGGLVQAGGSLRLSCAASGIIFKLYAMGWYRQAPGKEREFVATITKTGGRTYYADSVKGRFTISRDNAKNTVYLQMNSLKPEDTAVYYCAARRVNGKMYYWGQGTQVTVSS | high polyreactivity
QVQHVESGGGLVQAGGSLRLSCAASGIIFYSYTMGWYRQAPGKDRELVAAISRNGGGTYYADSVKGRFTSSRDIAKNTGYLQMNSLKPEHTAVYYCAAGWRFGRYSGDYWGQGTQVTVSS | high polyreactivity
